# Assay results published in US20260242478A1 (published 2026).
# B1: Phage-664 (peptide, not shown: large carriers)
# peptide: YCEGHAPEHMAKCL
# notes: Clonal phage supernatant of the Peptide-87 library
# B2: Phage-663 (peptide, not shown: large carriers)
# peptide: YCEGHSAEYMWKCL
# notes: as for B1
# B3: Phage-658 (peptide, not shown: large carriers)
# peptide: YCEGHTAEYLQKCL
# notes: as for B1
# B4: Phage-661 (peptide, not shown: large carriers)
# peptide: YCAGHLEIYMQKCL
# notes: as for B1
# B5: Phage-659 (peptide, not shown: large carriers)
# peptide: YCAGHSPEYMGKCM
# notes: as for B1
# B6: Phage-662 (peptide, not shown: large carriers)
# peptide: YCMGHLPQYMEKCL
# notes: as for B1
# B7: Phage-669 (peptide, not shown: large carriers)
# peptide: YCAGHLPEYIDKCL
# notes: as for B1
# B8: Phage-668 (peptide, not shown: large carriers)
# peptide: YCDGHAQEFMSKCL
# notes: as for B1
# B9: Phage-660 (peptide, not shown: large carriers)
# peptide: YCSGHLPEYMEKCL
# notes: as for B1
# B10: Phage-667 (peptide, not shown: large carriers)
# peptide: YCEGHSMQHMAKCL
# notes: as for B1
# B11: Phage-665 (peptide, not shown: large carriers)
# peptide: YCDGHAEQYMEKCL
# notes: as for B1
# B12: Phage-657 (peptide, not shown: large carriers)
# peptide: YCAGHLPEHIGKCL
# notes: as for B1
# B13: Phage-666 (peptide, not shown: large carriers)
# peptide: YCEGHSPEYMSHCF
# notes: as for B1
# B14: Phage-640 (peptide)
# peptide: YCEGHLPQYLAKCL
# notes: Clonal phage displaying the peptide; not shown: fused to pIII of the bacteriophage
# B15: Phage-633 (peptide)
# peptide: YCDGHLGIYMWKCL
# notes: as for B14
# B16: Phage-636 (peptide)
# peptide: YCEGHSLEYIGKCL
# notes: as for B14
# B17: Phage-631 (peptide)
# peptide: YCEGHLPEYMSKCL
# notes: as for B14
# B18: Phage-639 (peptide)
# peptide: YCDGHIPIYMSKCL
# notes: as for B14
# B19: Phage-637 (peptide)
# peptide: YCDGHQPEYMAKCL
# notes: as for B14
# B20: Phage-642 (peptide)
# peptide: YCDGHSAEYMMKCL
# notes: as for B14
# B21: Phage-634 (peptide)
# peptide: YCEGHSAEYMAKCL
# notes: as for B14
# B22: Phage-641 (peptide)
# peptide: YCAGHLPLYMEKCL
# notes: as for B14
# B23: Phage-643 (peptide)
# peptide: YCEGHLPQYIPKCL
# notes: as for B14
# B24: Phage-635 (peptide)
# peptide: YCDGHSDEYMAKCL
# notes: as for B14
# B25: Phage-638 (peptide)
# peptide: YCAGHLPEYISKCL
# notes: as for B14
# B26: Phage-632 (peptide)
# peptide: YCAGHLPEYMQKCL
# notes: as for B14
# Target: T1, Anti-CD28 Fab (SEQ ID NOs: 696, 697)
# T1 construct: Biotinylated and captured on neutravidin coated plates in the phage ELISA
# Test: phage ELISA; biotinylated anti-CD28 Fab on neutravidin plate, clonal phage supernatant, anti-M13 HRP detection;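 further: crude supernatants of single phage clones picked after panning were screened for binding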
# T1 sequence (VH, as listed by the source, chain 1 of 2): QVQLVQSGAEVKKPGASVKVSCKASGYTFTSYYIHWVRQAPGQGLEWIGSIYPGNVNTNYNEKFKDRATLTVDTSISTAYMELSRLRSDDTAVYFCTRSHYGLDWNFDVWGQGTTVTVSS
# T1 sequence (VL, as listed by the source, chain 2 of 2): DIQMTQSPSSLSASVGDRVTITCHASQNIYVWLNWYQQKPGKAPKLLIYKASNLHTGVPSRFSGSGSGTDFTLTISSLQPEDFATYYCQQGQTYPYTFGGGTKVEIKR
row,Binder,Anti-CD28 Fab signal (phage binding ELISA)
1,YCEGHSDEYMLKCL (Clonal phage of the Peptide-87 library) [Phage-673],2.06
2,YCEGHAPEYMMKCI (Clonal phage of the Peptide-87 library) [Phage-674],2.06
3,YCEGHAPQYIQKCL (Clonal phage of the Peptide-87 library) [Phage-670],2.07
4,YCDGHELRYMAKCL (Clonal phage of the Peptide-87 library) [Phage-671],2.07
5,YCDGHLPAYMAKCL (Clonal phage of the Peptide-87 library) [Phage-672],2.06

# Target: T2, Anti-CD28 Fab (SEQ ID NOs: 696, 697) (biotinylated (site not stated))
# T2 sequence (VH, as listed by the source, chain 1 of 2): as the sequence (VH, as listed by the source, chain 1 of 2) above
# T2 sequence (VL, as listed by the source, chain 2 of 2): as the sequence (VL, as listed by the source, chain 2 of 2) above
# Test: phage binding ELISA; biotinylated anti-CD28 Fab on neutravidin plates, clonal phage supernatant, anti-M13 HRP detection
row,Binder,Anti-CD28 Fab signal (phage binding ELISA)
1,YCDGHMPEYMLKCL (tested as crude phage supernatant) [Phage-649],2.11
2,YCMGHSEEYMQKCL (tested as crude phage supernatant) [Phage-646],2.11
3,YCEGHSPQYMQKCL (tested as crude phage supernatant) [Phage-652],2.1
4,YCDGHLEEYMAKCL (tested as crude phage supernatant) [Phage-648],2.11
5,YCSGHAPIYMAKCL (tested as crude phage supernatant) [Phage-650],2.1
6,YCDGHAPQYMLKCL (tested as crude phage supernatant) [Phage-644],2.12
7,YCAGHTQEYMSKCL (tested as crude phage supernatant) [Phage-651],2.1
8,YCDGHLPEYMHKCL (tested as crude phage supernatant) [Phage-647],2.11
9,YCAGHLPQYMEKCM (tested as crude phage supernatant) [Phage-656],2.09
10,YCDGHSAEYMSKCL (tested as crude phage supernatant) [Phage-654],2.1
11,YCDGHVPQYMAKCL (tested as crude phage supernatant) [Phage-653],2.1
12,YCDGHLPVYMAKCL (tested as crude phage supernatant) [Phage-645],2.11
13,YCQGHLPQYIAKCL (tested as crude phage supernatant) [Phage-655],2.09

# Target: T3, Anti-CD28 Fab (SEQ ID NOs: 696, 697)
# T3 construct: Biotinylated and captured on neutravidin coated plates in the phage ELISA
# Test: phage binding ELISA on anti-CD28 Fab plate pre-incubated with CD28 antigen as competitor; anti-M13 HRP detection
# T3 sequence (VH, as listed by the source, chain 1 of 2): as the sequence (VH, as listed by the source, chain 1 of 2) above
# T3 sequence (VL, as listed by the source, chain 2 of 2): as the sequence (VL, as listed by the source, chain 2 of 2) above
# Protocol: (§1) After panning, phage infected bacteria were plated out and colonies picked into 96 well blocks. Clonal phage was then amplified and separated from bacterial cells via centrifugation.
# (§2) Clonal phage were harvested as crude supematants and screened via standard ELISAs. […] Prior to the addition of clonal phage, wells were incubated with blocking buffer and CD28 antigen or blocking buffer alone. Without washing or aspirating, clonal phage supematants were then added to the wells and incubated for a short time. Wells were then washed followed by detection of bound phage using a horse radish conjugated anti-M13 antibody. Clonal phage of interest were then sent for sequence analysis.
row,Binder,Anti-CD28 Fab signal in the presence of CD28 (phage binding ELISA)
1,B1,0.1
2,B2,0.09
3,B3,0.1
4,B4,0.08
5,B5,0.06
6,B6,0.08
7,B7,0.08
8,B8,0.12
9,B9,0.09
10,B10,0.08
11,B11,0.07
12,B12,0.07
13,B13,0.09

# Target: Anti-CD28 Fab (SEQ ID NOs: 696, 697)
# Test: phage ELISA, biotinylated anti-CD28 Fab on neutravidin plate, anti-M13 HRP detection
# Target sequence in this assay (VH, as listed by the source, chain 1 of 2): as the sequence (VH, as listed by the source, chain 1 of 2) above
# Target sequence in this assay (VL, as listed by the source, chain 2 of 2): as the sequence (VL, as listed by the source, chain 2 of 2) above
# Protocol: as §1, §2
row,Binder,Anti-CD28 Fab signal (phage binding ELISA)
1,B14,2.12
2,B15,2.14
3,B16,2.14
4,B17,2.15
5,B18,2.13
6,B19,2.14
7,B20,2.12
8,B21,2.14
9,B22,2.12
10,B23,2.12
11,B24,2.14
12,B25,2.14
13,B26,2.15

# Target: T3, Anti-CD28 Fab (SEQ ID NOs: 696, 697)
# Test: phage binding ELISA; biotinylated anti-CD28 Fab on neutravidin plate, clonal phage supernatant, anti-M13 HRP detection
row,Binder,Anti-CD28 Fab signal (phage binding ELISA)
1,B1,2.08
2,B2,2.08
3,B3,2.09
4,B4,2.09
5,B5,2.09
6,B6,2.08
7,B7,2.07
8,B8,2.07
9,B9,2.09
10,B10,2.07
11,B11,2.08
12,B12,2.09
13,B13,2.08

# Target: Anti-CD28 Fab (SEQ ID NOs: 696, 697)
# Test: phage ELISA on captured anti-CD28 Fab, wells pre-incubated with CD28 antigen as competitor;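 further: crude clonal phage supernatants added without washing, bound phage read out by HRP-coupled anti-M13 antibody, reference wells given blocking buffer only instead of CD28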
# Target sequence in this assay (VH, as listed by the source, chain 1 of 2): as the sequence (VH, as listed by the source, chain 1 of 2) above
# Target sequence in this assay (VL, as listed by the source, chain 2 of 2): as the sequence (VL, as listed by the source, chain 2 of 2) above
row,Binder,Anti-CD28 Fab signal in the presence of CD28 (phage binding ELISA)
1,B14,0.1
2,B15,0.08
3,B16,0.06
4,B17,0.07
5,B18,0.08
6,B19,0.07
7,B20,0.08
8,B21,0.06
9,B22,0.06
10,B23,0.07
11,B24,0.07
12,B25,0.08
13,B26,0.09

# Target: T1, Anti-CD28 Fab (SEQ ID NOs: 696, 697)
# Test: phage ELISA on plate-bound anti-CD28 Fab, wells pre-incubated with CD28 antigen as competitor
# Protocol: as §1, §2
row,Binder,Anti-CD28 Fab signal in the presence of CD28 (phage binding ELISA)
1,YCEGHSDEYMLKCL (Clonal phage of the Peptide-87 library) [Phage-673],0.07
2,YCEGHAPEYMMKCI (Clonal phage of the Peptide-87 library) [Phage-674],0.06
3,YCEGHAPQYIQKCL (Clonal phage of the Peptide-87 library) [Phage-670],0.07
4,YCDGHELRYMAKCL (Clonal phage of the Peptide-87 library) [Phage-671],0.07
5,YCDGHLPAYMAKCL (Clonal phage of the Peptide-87 library) [Phage-672],0.12

# Target: T2, Anti-CD28 Fab (SEQ ID NOs: 696, 697)
# Test: phage binding ELISA; Fab-coated wells pre-incubated with CD28 antigen as competitor, then clonal phage, anti-M13 HRP detection
# Protocol: as §1, §2
row,Binder,Anti-CD28 Fab signal in the presence of CD28 (phage binding ELISA)
1,YCDGHMPEYMLKCL (tested as crude phage supernatant) [Phage-649],0.09
2,YCMGHSEEYMQKCL (tested as crude phage supernatant) [Phage-646],0.07
3,YCEGHSPQYMQKCL (tested as crude phage supernatant) [Phage-652],0.06
4,YCDGHLEEYMAKCL (tested as crude phage supernatant) [Phage-648],0.09
5,YCSGHAPIYMAKCL (tested as crude phage supernatant) [Phage-650],0.07
6,YCDGHAPQYMLKCL (tested as crude phage supernatant) [Phage-644],0.09
7,YCAGHTQEYMSKCL (tested as crude phage supernatant) [Phage-651],0.05
8,YCDGHLPEYMHKCL (tested as crude phage supernatant) [Phage-647],0.11
9,YCAGHLPQYMEKCM (tested as crude phage supernatant) [Phage-656],0.08
10,YCDGHSAEYMSKCL (tested as crude phage supernatant) [Phage-654],0.06
11,YCDGHVPQYMAKCL (tested as crude phage supernatant) [Phage-653],0.07
12,YCDGHLPVYMAKCL (tested as crude phage supernatant) [Phage-645],0.09
13,YCQGHLPQYIAKCL (tested as crude phage supernatant) [Phage-655],0.08
